Results taken from article PMC12421856 (mBio, 2025).

B1: pT1679 Fab (Fab, V domains shown)
VH: QVQLVQSGAEVKKPGSSVKVSCRASGGTFSSYAISWVRQAPGQGLEWMGTIIPVFGAPDYAQKFQGRVTITADESTSTAYMEVRSLRSEDTAVYYCARDASPYYYDRSGYPRWAEDLHHWGQGTMVTVSS
VL: QSVLTQPPSVSGAPGQRVTISCTGSSSNIGAGYDVHWYQQLPGTAPKLLIYGNSNRPSGVPDRFSGSKSGTSGSLAISGLQPEDEADYYCQSYDSSLSGSIFGGGTKLTVL
notes: also called Fab fragment of pT1679; source: Drosophila S2 cells, purified (Strep-Tactin XT, SEC)
B2: pT1679 Fab (Fab, V domains shown)
VH: B1 VH
VL: B1 VL
notes: source: Drosophila S2 cells, purified (Strep-Tactin XT, SEC)

How the values were obtained:
Details in all cases: both partners purified
[1] = target: trimeric SARS-CoV-2 S ectodomain (insect cell-expressed) (SARS-CoV-2 Wuhan-Hu-1 (MN908947), UniProt P0DTC2, stabilised); experiment: SPR
[2] = target: trimeric SARS-CoV-2 S ectodomain (insect cell-expressed) (SARS-CoV-2 Wuhan-Hu-1 (MN908947), UniProt P0DTC2, stabilised); experiment: SPR; remark: listed apart in the source
SARS-CoV-2 S HexaPro = SARS-CoV-2 S HexaPro (SARS-CoV-2 Wuhan-Hu-1, HexaPro, stabilised); experiment: cryo-EM structure

Row | Binder | fold higher affinity than for the RBD [1] | Kd [2] | koff [2] | kon [2] | stoichiometry N (SARS-CoV-2 S HexaPro)
1 | B1 | ~3 fold | – | – | – | –
2 | B2 | – | 0.13 nM | 0.00012 s⁻¹ | 900000 M⁻¹ s⁻¹ | 3 pT1679 molecules per trimeric S protein
